From US4235962A, “Combination kit for transaminase assay of a body fluid” (The Dow Chemical Company, priority 1978, dated 1980)

B1: ALT (alanine 2-oxoglutarate aminotransferase) (Homo sapiens) (protein)
chain: ASSTGDRSQAVRHGLRAKVLTLDGMNPRVRRVEYAVRGPIVQRALELEQELRQGVKKPFTEVIRANIGDAQAMGQRPITFLRQVLALCVNPDLLSSPNFPDDAKKRAERILQACGGHSLGAYSVSSGIQLIREDVARYIERRDGGIPADPNNVFLSTGASDAIVTVLKLLVAGEGHTRTGVLIPIPQYPLYSATLAELGAVQVDYYLDEERAWALDVAELHRALGQARDHCRPRALCVINPGNPTGQVQTRECIEAVIRFAFEERLFLLADEVYQDNVYAAGSQFHSFKKVLMEMGPPYAGQQELASFHSTSKGYMGECGFRGGYVEVVNMDAAVQQQMLKLMSVRLCPPVPGQALLDLVVSPPAPTDPSFAQFQAEKQAVLAELAAKAKLTEQVFNEAPGISCNPVQGAMYSFPRVQLPPRAVERAQELGLAPDMFFCLRLLEETGICVVPGSGFGQREGTYHFRMTILPPLEKLRLLLEKLSRFHAKFTLEYS
B2: AST (aspartate 2-oxoglutarate aminotransferase) (Homo sapiens) (protein)
chain: APPSVFAEVPQAQPVLVFKLTADFREDPDPRKVNLGVGAYRTDDCHPWVLPVVKKVEQKIANDNSLNHEYLPILGLAEFRSCASRLALGDDSPALKEKRVGGVQSLGGTGALRIGADFLARWYNGTNNKNTPVYVSSPTWENHNAVFSAAGFKDIRSYRYWDAEKRGLDLQGFLNDLENAPEFSIVVLHACAHNPTGIDPTPEQWKQIASVMKHRFLFPFFDSAYQGFASGNLERDAWAIRYFVSEGFEFFCAQSFSKNFGLYNERVGNLTVVGKEPESILQVLSQMEKIVRITWSNPPAQGARIVASTLSNPELFEEWTGNVKTMADRILTMRSELRARLEALKTPGTWNHITDQIGMFSFTGLNPKQVEYLVNEKHIYLLPSGRINVSGLTTKNLDYVATSIHEAVTKIQ

Key:
[1] = substrate: C[C@H](N)C(=O)O; assay: purified protein, by the assay type; conditions: other: 15 mM 2-oxoglutarate
[2] = substrate: N[C@@H](CC(=O)O)C(=O)O; assay: purified protein, by the assay type
From the text: For precise measurement of a bimolecular reaction of the type under discussion, the rate of a reaction, at a given "B" concentration should be independent of A's concentration (i.e. at or near apparent Vmax with respect to A).
A. AST cross measurement in an ALT test for a ping pong mechanism, [formula] […] [formula]
Going through the same mathematical explanation: [formula]

Row | Protein | Km [1] | Km ([2]; other: 0.2 mM 2-oxoglutarate) | Km ([2]; other: 15 mM 2-oxoglutarate)
1 | B1 | 18.1 mM |  | 
2 | B2 |  | 0.91 mM | 10 mM
